Assay results published in US20220062371A1 (DEBIOPHARM RESEARCH AND MANUFACTURING S A, published 2022).
Like-named read-outs stand apart in the source and are kept apart here. Non-standard residues stand in square brackets, D forms with d. Groups on a side chain read outwards from the residue. Primed or numbered codes have the meaning given here. No end group written: not given here. *: point of attachment. OCPT = camptothecin (CPT) attached as an ester, CC[C@@]1(O*)C(=O)OCc2c1cc1n(c2=O)Cc2cc3ccccc3nc2-1; Propanoyl(3-maleimido) = O=C1C=CC(=O)N1CCC(=O)*; PEG4′ = tetraethylene glycol; Dab = NCC[C@H](N)C(=O)O; CO′ = not defined here; Dap = NC[C@H](N)C(=O)O; CPT = Camptothecin; AF = auristatin F; Sar = CNCC(=O)O

How the values were obtained:
Assay in all cases: cell-based or functional assay
[1] = biological target: T1, Recombinant human Cathepsin B (human, UniProt P07858 80-333)
[2] = biological target: T1, Recombinant human Cathepsin B; remark: listed apart in the source
[3] = biological target: T1, Recombinant human Cathepsin B; remark: listed apart in the source
[4] = biological target: T1, Recombinant human Cathepsin B; remark: listed apart in the source

Ratio (T1/2 Compound/T1/2 Reference) [1]	Ratio (T1/2 Compound/T1/2 Reference) [2]	Binder	other results
0.14	–	FKKF (Ac-Cys-Mal-PEG4 at the N-terminus; Lys(Mal-DM1)) [Compound 12, Ac-Cys-Mal-PEG4-Phe-Lys-Lys(Mal-DM1)-Phe-OH]	–
0.15	–	{Ac-Cys-Propanoyl(3-maleimido)-PEG4′}-FKK(AF)F-OH [Compound 13, Ac-Cys-Mal-PEG4-Phe-Lys-Lys(AF)-Phe-OH]	–
–	0.12	RKF (N-terminus acylated with auristatin F (AF); Lys 2 side chain carries PEG4-Mal-Cys-Ac) [Compound 1, AF-Arg-Lys(PEG4-Mal-Cys-Ac)-Phe-OH]	–
–	0.09	XKF (X at position 1 is citrulline (Cit); N-terminus acylated with auristatin F (AF); Lys 2 side chain carries PEG4-Mal-Cys-Ac) [Compound 19, AF-Cit-Lys(PEG4-Mal-Cys-Ac)-Phe-OH]	–
–	–	FKKFFKKF (Ac-Cys-Mal-PEG4 at the N-terminus; two Lys(Mal-DM1)) [Compound 29, Ac-Cys-Mal-PEG4-[Phe-Lys-Lys(Mal-DM1)-Phe]2-OH]	Ratio (T1/2 Compound/T1/2 Reference) [3]: 0.23
0.03	–	FKKFFK (Ac-Cys-Mal-PEG4 at the N-terminus; Lys(Mal-DM1)) [Compound 28, Ac-Cys-Mal-PEG4-Phe-Lys-Lys(Mal-DM1)-Phe-Phe-Lys-OH]	–
0.1	–	R[PEG4′]FR[Dab](CO‑CPT)F-OH [Compound 10, Arg-PEG4-Phe-Arg-Dab(CO-CPT)-Phe-OH]	–
–	–	XKFKF (AF at the N-terminus; citrulline (Cit); Lys(Mal-DM1); Lys(PEG4-Mal-Cys-Ac)) [Compound 31, AF-Cit-Lys(Mal-DM1)-Phe-Lys(PEG4-Mal-Cys-Ac)-Phe-OH]	Ratio (T1/2 Compound/T1/2 Reference) [4]: 0.08
–	0.005	FXKY (DM1-Mcc on the N-terminus of Phe; citrulline (Cit); Lys(PEG5-Ma-Cys-Ac)) [Compound 22, DM1-Mcc-Phe-Cit-Lys(PEG5-Ma-Cys-Ac)-Tyr-OH]	–
–	4e-05	XKY (X at position 1 is citrulline (Cit); DM1-Mcc on the N-terminus; Lys 2 side chain carries PEG5-Ma-Cys-Ac) [Compound 23, DM1-Mcc-Cit-Lys(PEG5-Ma-Cys-Ac)-Tyr-OH]	–
0.2	–	R[PEG4′]FRS([CO′-CPT])F-OH [Compound 11, Arg-PEG4-Phe-Arg-Ser(CO-CPT)-Phe-OH]	–
–	0.05	FKKF (DM1-Mal on the N-terminus of Phe; Lys(PEG4-Mal-Cys-Ac)) [Compound 5, DM1-Mal-Phe-Lys-Lys(PEG4-Mal-Cys-Ac)-Phe-OH]	–
0.005	–	FXKY (Ac-Cys-Ma-PEG5 at the N-terminus; citrulline (Cit); Lys(Mcc-DM1)) [Compound 27, Ac-Cys-Ma-PEG5-Phe-Cit-Lys(Mcc-DM1)-Tyr-OH]	–
–	0.09	FXFK (DM1-Mal on the N-terminus of Phe; citrulline (Cit); Lys(PEG4-Mal-Cys-Ac)) [Compound 7, DM1-Mal-Phe-Cit-Phe-Lys(PEG4-Mal-Cys-Ac)-OH]	–
–	–	FRKRKF (Ac-Cys-Mal-PEG4 at the N-terminus; Lys(Mal-DM1); Lys(AF)) [Compound 30, Ac-Cys-Mal-PEG4-Phe-Arg-Lys(Mal-DM1)-Arg-Lys(AF)-Phe-OH]	Ratio (T1/2 Compound/T1/2 Reference) [3]: 0.07
0.19	–	R[PEG4′]FRE([Sar-OCPT])F-OH [Compound 8, Arg-PEG4-Phe-Arg-Glu(Sar-OCPT)-Phe-OH]	–
0.63	–	R[PEG4′]FR[Dap](CO‑CPT)F-OH [Compound 9, Arg-PEG4-Phe-Arg-Dap(CO-CPT)-Phe-OH]	–
–	0.02	FXKF (DM1-Mal on the N-terminus of Phe; citrulline (Cit); Lys(PEG4-Mal-Cys-Ac)) [Compound 6, DM1-Mal-Phe-Cit-Lys(PEG4-Mal-Cys-Ac)-Phe-OH]	–
–	0.11	RFK (N-terminus acylated with auristatin F (AF); Lys 3 side chain carries PEG4-Mal-Cys-Ac) [Compound 3, AF-Arg-Phe-Lys(PEG4-Mal-Cys-Ac)-OH]	–
